Test results reported in patent US20090232783.

Molecular target: Ferritin-H (expression plasmid pcEXV-1) (Homo sapiens) (UniProt P02794)
Assay: cell_activity
Conditions: CV-1 cells, EKLF-stimulated CAT reporter

Sequence of Ferritin-H (expression plasmid pcEXV-1) (Homo sapiens) (P02794 2-183): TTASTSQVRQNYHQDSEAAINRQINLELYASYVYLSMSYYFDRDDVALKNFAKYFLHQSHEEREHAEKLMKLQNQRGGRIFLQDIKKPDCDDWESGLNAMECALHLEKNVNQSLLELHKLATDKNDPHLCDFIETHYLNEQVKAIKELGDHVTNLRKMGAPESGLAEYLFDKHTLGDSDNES

## beta-globin -610/+20 promoter in CAT reporter
  activity: 62 % repression
